Data reported in PMC6547012, “TCP Transcription Factors Associate with PHYTOCHROME INTERACTING FACTOR 4 and CRYPTOCHROME 1 to Regulate Thermomorphogenesis in Arabidopsis thaliana” (iScience, 2019).

Biological target: T1, FLAG-CRY1 (Arabidopsis thaliana, UniProt Q43125 1-681)
T1 construct: CRYPTOCHROME 1 (CRY1), Arabidopsis thaliana; source: E. coli-purified
Test: pull-down; in vitro pull-down; MBP or MBP-TCP17 incubated with FLAG-CRY1 for 2 h at 4°C; immunoblot with anti-MBP or anti-FLAG
Conditions: both partners purified

T1 sequence (Q43125 whole entry): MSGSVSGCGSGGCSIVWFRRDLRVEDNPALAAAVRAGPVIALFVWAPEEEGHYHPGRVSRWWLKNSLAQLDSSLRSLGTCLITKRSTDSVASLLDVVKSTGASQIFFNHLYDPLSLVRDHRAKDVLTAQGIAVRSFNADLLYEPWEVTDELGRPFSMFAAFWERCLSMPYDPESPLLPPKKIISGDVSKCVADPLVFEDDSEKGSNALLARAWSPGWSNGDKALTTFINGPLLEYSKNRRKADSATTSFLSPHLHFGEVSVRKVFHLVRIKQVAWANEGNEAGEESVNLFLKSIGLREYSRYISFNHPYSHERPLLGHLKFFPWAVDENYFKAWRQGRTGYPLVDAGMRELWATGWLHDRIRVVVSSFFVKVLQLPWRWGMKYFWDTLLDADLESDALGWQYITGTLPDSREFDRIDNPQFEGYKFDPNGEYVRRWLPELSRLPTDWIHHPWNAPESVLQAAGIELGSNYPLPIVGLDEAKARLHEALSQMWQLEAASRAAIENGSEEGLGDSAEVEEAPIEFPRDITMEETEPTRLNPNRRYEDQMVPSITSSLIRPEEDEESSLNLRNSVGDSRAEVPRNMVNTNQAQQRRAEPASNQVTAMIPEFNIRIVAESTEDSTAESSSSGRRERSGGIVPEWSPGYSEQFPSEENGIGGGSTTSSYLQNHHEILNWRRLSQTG

- binding result: binds
B1: MBP-TCP17 (natural protein, Arabidopsis thaliana, UniProt Q9LEZ9 1-242, looked up)
chain: MGIKKEDQKSSLSLLTQRWNNPRIVRVSRAFGGKDRHSKVCTVRGLRDRRIRLSVMTAIQVYDLQERLGLSQPSKVIDWLLEVAKNDVDLLPPLQFPPGFHQLNPNLTGLGESFPGVFDLGRTQREALDLEKRKWVNLDHVFDHIDHHNHFSNSIQSNKLYFPTITSSSSSYHYNLGHLQQSLLDQSGNVTVAFSNNYNNNNLNPPAAETMSSLFPTRYPSFLGGGQLQLFSSTSSQPDHIE
notes: TCP17, Arabidopsis thaliana; also called MBP-tagged TCP17; source: E. coli expressed and purified
